Values joined by “and” are separate entries in the source; they are usually repeats but may differ in a detail not shown here. Equal entries are not always repeated.
T1: cynomolgus monkey Siglec-15-his protein (Acrobiosystems, Cat #: SG5-C52H6) (cynomolgus monkey, UniProt Q6ZMC9 20-263 (human entry))
T1 construct: Bought protein; also called cynomolgus monkey Siglec-15 protein; not shown: his tag
T1 chain: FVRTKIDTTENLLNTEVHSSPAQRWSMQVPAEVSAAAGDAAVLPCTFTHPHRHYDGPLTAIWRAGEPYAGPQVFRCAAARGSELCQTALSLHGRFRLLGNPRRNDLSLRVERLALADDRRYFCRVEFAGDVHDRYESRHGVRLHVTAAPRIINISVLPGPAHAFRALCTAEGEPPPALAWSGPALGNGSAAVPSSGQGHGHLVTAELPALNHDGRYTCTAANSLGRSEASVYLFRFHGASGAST

T2: cynomolgus monkey Siglec-15 on CHO-K1/cynomolgus monkey Siglec-15 cells (cynomolgus monkey, UniProt Q6ZMC9 20-328 (human entry))
T2 chain: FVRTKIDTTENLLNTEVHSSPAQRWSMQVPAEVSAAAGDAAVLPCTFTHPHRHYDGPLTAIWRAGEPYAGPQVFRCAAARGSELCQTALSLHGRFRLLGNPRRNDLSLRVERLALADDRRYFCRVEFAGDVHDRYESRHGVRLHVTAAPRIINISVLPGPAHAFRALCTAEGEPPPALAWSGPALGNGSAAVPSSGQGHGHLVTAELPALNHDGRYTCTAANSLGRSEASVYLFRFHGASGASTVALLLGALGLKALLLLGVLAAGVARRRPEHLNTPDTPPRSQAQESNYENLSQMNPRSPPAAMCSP

B1: PR301289 (antibody, human IgG1, kappa, V domains shown)
VH: QVQLVQSGAEVKKPGASVKVSCRASGYTFTSYDINWVRQATGQGLEWMGWMNPHSGDTGYAQNFQGRVTMTWNTSISTAYMELSSLRSEDTAVYYCARRRVGVYYYGMDVWGQGTTVTVSS
VL: ENVLTQSPGTLSLSPGERATLSCRASQSVSSSYFGWYQQKPGQAPRLLIYGASSRATGIPDRFSGSGSGTDFTLTISRLEPEDFAVYYCQQYGSSPITFGQGTRLEIKR
notes: Parent of the PTM variants PR301289-1 and -2
B2: PR301285 (antibody, human IgG1, kappa, V domains shown)
VH: QVQLQESGPGLVKPSETLSLTCTVSGGSMISYYWSWLRQPPGKGLEWIGYIYYSGNTNYNPSLKSRITIAVDTSKNQFSLKLNSVTAADTAVYYCARERELHPYYFDYWGQGTLVTVSS
VL: DIQLTQSPSFLSASVGDRVTITCRASQGIDNYLAWYQQKPGKAPKVLIYAASTLQSGVPSRFSGSGSGTEFTLTISSLQPEDFATYYCQQLNSYPLTFGGGTKVEIKR
B3: PR300066 (Tab) (antibody, human IgG1, kappa, V domains shown)
VH: QVQLQQPGAELVKPGASVKMSCKASGYTFTSYWITWVIQRPGQGLEWIGDIYCGSDTMHYNEKFKNKATLTVDTSSSTAYMQLSSLTSEDSAVYYCARWWDYGSSYDYFDYWGQGTTLTVSS
VL: DIKMTQSPSSMYASLGERVTITCKASQDINSYLSWFQQKPGKSPKTLIYRANRLVDGVPSRFSGSGSGQDYSLTISSLEYEDMGIYYCLQYDEFPYTFGGGTKLEIKR
notes: variable region from clone 5G12 of WO 2018/057735A1, on human IgG1/kappa constant regions; also called 5G12
B4: PR301286 (antibody, human IgG1, kappa, V domains shown)
VH: QVQLVESGGGVVQPGKSLRLSCAASGFTFSSYGMHWVRQAPGKGLEWVAVIWIDGSNRYYAASVKGRFTISRDNSKNTLYLQMNSLRAEDTAVYYCTRGYGDYAYVMDVWGQGASVTVSS
VL: DIVMTQSPLSLPVTPGEPASISCRSSQSLLPGNGYNYLDWYLQKPGQSPQLLIYLGSNRASGVPDRFSGSGSGTDFTLKISRVEAEDVGIYYCMQALQSPLTFGGGTKVEIKR
notes: Parent of the PTM variants PR301286-1, -3, -5, -6, -7

Biological target: T1, cynomolgus monkey Siglec-15-his protein …
Assay: ELISA, coated cynomolgus monkey Siglec-15-his
Experimental: […] cynomolgus monkey Siglec-15-his protein (Acrobiosystems, Cat #: SG5-C52H6) dissolved in PBS was added to an ELISA plate at 100 μL/well for coating and the plate was incubated overnight at 4° C. The ELISA plate was then blocked with PBST (PBS+0.05% Tween 20) containing 2% BSA at 200 μL/well and incubated at 37° C. for 1 h. The ELISA plate was washed 4 times with PBST. The anti-Siglec-15 antibody diluted in a gradient (5-fold dilution, starting concentration: 6.67 nM) was added to the ELISA plate at 100 µL/well and the plate was incubated at 37° C. for 1 h. The ELISA plate was washed 4 times with PBST. The goat anti-human IgG (H+L)-HRP (1:5000, Jackson, Cat #: 109-035-088) was added at 100 μL/well and the plate was incubated at 37° C. for 1 h. The ELISA plate was washed 4 times with PBST. The TMB substrate (Biopanda, Cat #: TMB-S-003) was added at 100 μL/well, and the plate was incubated at room temperature for 5 min, and then the stop buffer (Solarbio, Cat #: C1058) was added at 100 μL/well to stop the reaction.

| EC50 | Binder |
| --- | --- |
| 104 pM | B1 |
| 38 pM | B2 |
| 25 pM and 12 pM | B3 |
| 90 pM | B4 |

What follows are binders tested against T3, human Siglec-3-his protein (Acrobiosystems, Cat CD3-H5226) (human, UniProt P20138 18-259) (assay: ELISA on coated human Siglec-3-his, antibody at 100 nM and 10 nM, goat anti-human IgG-HRP, OD450).
T3 construct: Bought protein; not shown: his tag
T3 sequence (P20138 18-259 limits assumed): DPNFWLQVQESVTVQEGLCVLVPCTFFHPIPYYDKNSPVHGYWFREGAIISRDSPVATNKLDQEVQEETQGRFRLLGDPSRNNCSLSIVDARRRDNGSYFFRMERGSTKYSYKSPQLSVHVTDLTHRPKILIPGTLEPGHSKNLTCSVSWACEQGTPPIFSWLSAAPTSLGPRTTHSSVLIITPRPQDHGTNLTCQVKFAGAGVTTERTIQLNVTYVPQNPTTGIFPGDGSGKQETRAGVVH
Experimental: Human Siglec-15 ECD-his protein (Acrobiosystems, Cat SG5-H52H3), human Siglec-2-his protein (Acrobiosystems, Cat CD2-H52H8), human Siglec-4a-his protein (Acrobiosystems, Cat MAG-H52H8), human Siglec-3-his protein (Acrobiosystems, Cat CD3-H5226), human Siglec-10-his protein (Acrobiosystems, Cat SIO-H52H9), and human PD-L1/B7-H1-his protein (Acrobiosystems, Cat PD1-H5229), each at 1 μg/mL and dissolved in PBS, were each added to an ELISA plate at 100 μL/well for coating and the plate was incubated overnight at 4° C. The ELISA plate was then blocked with PBST (PBS+0.05% Tween 20) containing 2% BSA at 200 μL/well and incubated at 37° C. for 1 h. The ELISA plate was washed 4 times with PBST. The anti-Siglec-15 antibody diluted in a gradient (concentrations: 100 nM and 10 nM) was added to the ELISA plate at 100 μL/well and the plate was incubated at 37° C. for 1 h. The ELISA plate was washed 4 times with PBST. The goat anti-human IgG (H+L)-HRP (1:5000, Jackson, Cat 109-035-088) was added at 100 μL/well and the plate was incubated at 37° C. for 1 h. The ELISA plate was washed 4 times with PBST. The TMB substrate (Biopanda, Cat TMB-S-003) was added at 100 μL/well, and the plate was incubated at room temperature for 5 min, and then the stop buffer (Solarbio, Cat #: C1058) was added at 100 μL/well to stop the reaction.

| binding result | Binder |
| --- | --- |
| no binding (tested: 100 nM) | B1 |
| no binding (tested: 100 nM) | B2 |
| no binding (tested: 100 nM) | B3 |
| no binding (tested: 100 nM) | B4 |

Biological target: T2, cynomolgus monkey Siglec-15 on …
Assay: flow cytometry on CHO-K1/cynomolgus monkey Siglec-15 cells
Experimental: cDNAs encoding cynomolgus monkey Siglec-15 (the amino acid sequence of which is set forth in SEQ ID NO: 155) were obtained by gene synthesis and cloned into the expression vector pcDNA3.1, and then the expression vector was transfected into CHO-K1 cells to construct CHO-K1/cynomolgus monkey Siglec-15 cells expressing cynomolgus monkey Siglec-15. CHO-K1/cynomolgus monkey Siglec-15 cells were adjusted to a density of 1×10⁶/mL with PBS, and the cell suspension was added to a 96-well V-bottom plate at 100 µL/well. The 96-well V-bottom plate was centrifuged at 1000 rpm for 5 min and washed once with PBS+2% FBS. The cells were resuspended in 100 μL of antibody diluted in a gradient (5-fold dilution, starting concentration: 500 nM) and incubated at 4° C. for 1 h, and PR300066 and hIgG1 were used as positive control and negative control, respectively. After 1 h, the cells were washed twice with PBS+2% FBS. The cells were incubated with 100 μL of Alexa Fluor 488 goat anti-human IgG (Jackson, Cat #: 109-545-098) at 4° C. for 1 h in the dark and then washed twice with PBS+2% FBS. The cells were then resuspended in 200 μL of PBS+2% FBS. The fluorescence intensity of the cells was analyzed using a BD FACS Canto™ II flow cytometer.

| EC50 | Maximum (MFI) | Binder |
| --- | --- | --- |
| 1360 pM | 5420 | B1 |
| 889 pM | 5660 | B2 |
| 1500 pM and 2190 pM | – | B3 |
| 3390 pM | 5860 | B4 |
